Experimental data published in the nanobody polyreactivity screen of Harvey et al. (2022).

assay: yeast display, Sf9 membrane polyspecificity reagent, FACS + sequencing; frameworks hold sequencing errors
Summary of the method: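 Sorting gates, low and high (top ~1%), were placed on anti-HA fluorescence to track expression and on streptavidin fluorescence to track reagent binding. A clone's polyreactivity label is taken from the gate it came out of. The reagent was 10% biotinylated, detergent-solubilized Sf9 membrane, applied for 1 hour at 4 °C to galactose-induced yeast display cells.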

Q: With “QVHLVESGGGLVQAGGSLRLSCAASGFTFGVYAMGWYRQAPGKERELVAAISRRGTSTYYADSVKGRFTISRDTAKYTVYLQMNSLKPEDTAVYYCNARRYQVTVDHWGQGTQVTVSS” as the sequence, how does the “polyreactivity (PSR sort gate)” value read?
A: Its value is “high polyreactivity”.

Q: Which “polyreactivity (PSR sort gate)” value does the source give for “QVHLVESGGGLVQAGGSLRLSCAASGFTFRGYAMGWYRQAPGTERELVAAVSGSGGRTHYADSVKGRFTISRDNAKNTVYLQMNSLKPEDTAVYYCNARGRASATGRRGRPDPFGYWGQGTQVTVSS” here?
A: The value was “high polyreactivity”.

Q: For “QVHLVESGGGLVQAGGSLRLSCAASGFTFRRNAMGWYRQAPGKERELVAAITRSGGVTYYADSVKGRFTISRDNAKNTVYLQMNSMKPEDTAVYYCATQARLYGGYDRYAGSYDYWGQGTQVTVSS”, which “polyreactivity (PSR sort gate)” value is on record?
A: The value was “high polyreactivity”.

Q: Which “polyreactivity (PSR sort gate)” value does the source give for “QVHLVESGGGLVQAGGSLRLSCAASGFTFSSNAMGWYRQAPGKERELVADISFNSTSTYYADSVKGRFTISRDNAKNTVYLQMNSLKPEDTAVYYCAADVPRVQSEPEYDYWGQGTQVTVSS” here?
A: Its value is “low polyreactivity”.

Q: With “QVHLVESGGGLVQAGGSLRLSCAASGFTFSYYAMGWYRQAPGKERELVAVISDRGGITYYADSVKGRFTISRDNAKNTVYLQMISLKPEDTAVYYCAAQNPRYNYRYYYWGQGTQVTVSS” as the sequence, how does the “polyreactivity (PSR sort gate)” value read?
A: Its value is “low polyreactivity”.

Q: Which “polyreactivity (PSR sort gate)” value does the source give for “QVHLVESGGGLVQAGGSLRLSCAASGFTITYNAMGWYRQAPGKEREFVAAITNNGSTYYADSVKGRFTISRDNAKNSVYLQMKSLKPEDTAVYYCAVDRGYYDEYNYWGQGTHVTVSS” here?
A: The value was “low polyreactivity”.

Q: With “QVHLVESGGGLVQAGGSLRLSCAASGGTINRYAMGWSRQAPGKERELVAAITYSGGRTYYADSVKGRFTISRDNAKNTVYLQMNSLKPEDTAVYYCAARVGKIISDSWGQGTQVTVSS” as the sequence, how does the “polyreactivity (PSR sort gate)” value read?
A: The value was “high polyreactivity”.

Q: For “QVHLVESGGGLVQAGGSLRLSCAASGIIFGRNVMGWYRQAPGKERELVAAISSSGGRTYYADSVKGRFTISRDNAKNTVYLQMNSLNPEVTAVYYCAADEVTKKNSFPRIMDYWGQGTQVTVSS”, which “polyreactivity (PSR sort gate)” value is on record?
A: The value was “high polyreactivity”.

Q: For “QVHLVESGGGLVQAGGSLRLSCAASGIIFHYYAMGWYRQAPGKERALVATMTSGGSTYYADSVKGRFTISRDNAKNTVYLQMNSLKPEDSAVYYCAATYGGSVFEYDYWGQGTQVTVSS”, which “polyreactivity (PSR sort gate)” value is on record?
A: Its value is “low polyreactivity”.

Q: Which “polyreactivity (PSR sort gate)” value does the source give for “QVHLVESGGGLVQAGGSLRLSCAASGIIFYWNPMGWYRQAPGKERELVAAISWSGGSTYYADSVKGRFTISRDNAKNTVYLQMNSLKPEDTAVYYCNAVTTYYPQFRPGAIPGVGYGFWGQGTQVTVSS” here?
A: The value was “low polyreactivity”.

Q: Which “polyreactivity (PSR sort gate)” value does the source give for “QVHLVESGGGLVQAGGSLRLSCAASGILRLNAMGWYRQAPGKEREFVATISRSGGITYYADSVKGRFTISRDNAKNTVYLQMNSLKPEDTAVYYCAKGGYSLYGYWGQGTQVTVSS” here?
A: The value was “high polyreactivity”.

Q: Which “polyreactivity (PSR sort gate)” value does the source give for “QVHLVESGGGLVQAGGSLRLSCAASGITFAWYAMGWYRQAPGKERELVAAISDRGGSTYYADSVKGRFTMSRDNAKNTVDLQMNSLKPEETAVYYCAADYRYYWRSGASSRMDYWGQGTQVTVSS” here?
A: The value was “high polyreactivity”.

Q: For “QVHLVESGGGLVQAGGSLRLSCAASGITFNIYTLGWYRQAPGKEREFVATISSSGGGTYYADSVKGRFTISRDNSKNTVYFQMNSLKPEDTAVYYCARYGIGADGYDYWGQGTQVTVSS”, which “polyreactivity (PSR sort gate)” value is on record?
A: Its value is “low polyreactivity”.

Q: With “QVHLVESGGGLVQAGGSLRLSCAASGITFWGNAMGWYRHAPGKEREFVARINWSGGRTYYAESVKGRFTISRDNAKITVYLQMKSLKPEDTAVYYCAATSLIYGYRTYVYWGQGTQVTVSS” as the sequence, how does the “polyreactivity (PSR sort gate)” value read?
A: The value was “high polyreactivity”.

Q: For “QVHLVESGGGLVQAGGSLRLSCAASGITFYGNTMGWYRQTPGKERELVARISSGGSTNYAESVKGRFTISRVNAKNTVYLQMNSLKPEDTAVSYCAVKQYGFIWSGYGYDYWGQGSQVTVSS”, which “polyreactivity (PSR sort gate)” value is on record?
A: The value was “high polyreactivity”.

Q: For “QVHLVESGGGLVQAGGSLRLSCAASGITFYRFVLGGYRQAPGKEWELDAAISRTGGYTYYADSVKGRFTLSRDNAKNTVYLQMNSLKPVDTAVYYCAAATSTGIYDYWGQGTQVTGSS”, which “polyreactivity (PSR sort gate)” value is on record?
A: The value was “high polyreactivity”.

Q: For “QVHLVESGGGLVQAGGSLRLSCAASGITIYVYAMGWYRQAPGKEREFVAAINGRGGSPYYADSVKGRFTISRDNAKNTVYLQMNSLKPEDTAVFYCAAESLAIYYKYPPYDYWGQGSQVTVSS”, which “polyreactivity (PSR sort gate)” value is on record?
A: The value was “high polyreactivity”.

Q: Which “polyreactivity (PSR sort gate)” value does the source give for “QVHLVESGGGLVQAGGSLRLSCAASGLIFFKYAMGWYRQETGKESELVAANSSSGGRTSYADSVKGRFTISRDNAKNTVYLQMNSEKPEDTAVYYCNVKPSASYIRYNYRYYYWGQGTHVTVSS” here?
A: The value was “high polyreactivity”.

Q: With “QVHLVESGGGLVQAGGSLRLSCAASGLIFGKNAMGWYRQPPGKERELVAAISSGESTYADSVKWRFTISRDNAKNTVYLQMNSLKPEDTAVYYCNAEVLRESYDRHPTTDYYWGQGTQVTVSS” as the sequence, how does the “polyreactivity (PSR sort gate)” value read?
A: The value was “low polyreactivity”.

Q: Which “polyreactivity (PSR sort gate)” value does the source give for “QVHLVESGGGLVQAGGSLRLSCAASGLIFVFYAMGWYRQAPGKERELVAAISRSGTSTYADSVKGRFTISRDNAKNTVYLQMNSLKPEDTAVYYCNAYRYYSPDGYWGQGTHVTVSS” here?
A: The value was “low polyreactivity”.

Q: For “QVHLVESGGGLVQAGGSLRLSCAASGLILPYYAMGWYRQARGKERELVAAISRTGGRTSYADSVKGRFTISRDNAKNTVYLQMNSLKPEDTAVYYCAAVGQSGGRRYDYWGQGTQVTVSS”, which “polyreactivity (PSR sort gate)” value is on record?
A: The value was “high polyreactivity”.

Q: Which “polyreactivity (PSR sort gate)” value does the source give for “QVHLVESGGGLVQAGGSLRLSCAASGLTFPSNAMGWYRQAPGKERELVAAISKRGGRTYYADSVKGRFTISRDNAKNSVYLQMNSLKPEDTAVYYFATPYAYPGTVQYAGYNYWGQGTQVTVSS” here?
A: The value was “high polyreactivity”.

Q: Which “polyreactivity (PSR sort gate)” value does the source give for “QVHLVESGGGLVQAGGSLRLSCAASGLTFYSNAMGWYRQAPGKERELVARISTGGSTYADSVKGRFTISRDNAKNTVYLQMNSLKPEDTAVYYCAKLPPRGIDDEYWGQGNQVTVSS” here?
A: Its value is “low polyreactivity”.

Q: Which “polyreactivity (PSR sort gate)” value does the source give for “QVHLVESGGGLVQAGGSLRLSCAASGRIFAYYTMGWYRQAPGKERELVAAITSRGGSTYYADSVKGRFTISRDNAKKTVYLQMNSLKPEDTAVYYCADMRPSNVDYWGQGTQVTVSS” here?
A: Its value is “high polyreactivity”.

Q: For “QVHLVESGGGLVQAGGSLRLSCAASGRIFKDNAMGWYRQAPGKERELVATIDSGGDTNYADSVKGRFTISRDNAKNTVYLQMNSLKPEDTAVYYCNTEGFLSAVYAFGYWGQGTQVTVSS”, which “polyreactivity (PSR sort gate)” value is on record?
A: Its value is “low polyreactivity”.

Q: Which “polyreactivity (PSR sort gate)” value does the source give for “QVHLVESGGGLVQAGGSLRLSCAASGRIFNQYGMGWSRQAPGKERELVAAIRSGDSTNYADSVKGRFTISRDNAKNTVYLQMNSLKPEDTAVYYCARDRPGDYAGYDYWGQGTQVTVSS” here?
A: Its value is “low polyreactivity”.

Q: With “QVHLVESGGGLVQAGGSLRLSCAASGRIFRFYAMGWYRQAPGKERELVADISRRGGSTYYADSVKGRFTISRDNAKNTVYLQMNSLKPEDTAVYYCNARWYRTGSTYHEDYWGQGTQVTVSS” as the sequence, how does the “polyreactivity (PSR sort gate)” value read?
A: The value was “high polyreactivity”.

Q: Which “polyreactivity (PSR sort gate)” value does the source give for “QVHLVESGGGLVQAGGSLRLSCAASGRIFSRNAMGRYRQAPGKERELVAAISSDGNTNYADSVKGFTISRDNAKNTVYLQMNSLKPESTAVYYCAARFGYTAYGYWGQGTQVTVSS” here?
A: The value was “low polyreactivity”.

Q: With “QVHLVESGGGLVQAGGSLRLSCAASGRIFYYNAMGWYRQAPGKERELVAAISSAGSTYYADSVKGRFTLSRDNAKNTVYLQMNSLKPEDTAVYYCNAGKHERMDWGQGTQVTVSS” as the sequence, how does the “polyreactivity (PSR sort gate)” value read?
A: The value was “high polyreactivity”.

Q: With “QVHLVESGGGLVQAGGSLRLSCAASGRIFYYYAMGWYRQAPGKEREFVAAIRISGGSTNYADSVKGRFTISRDNAKNTVYLQMNSLKPEDTAVYYCAARSKYSGIRRAYDYWGQGTQVTVSS” as the sequence, how does the “polyreactivity (PSR sort gate)” value read?
A: The value was “high polyreactivity”.

Q: Which “polyreactivity (PSR sort gate)” value does the source give for “QVHLVESGGGLVQAGGSLRLSCAASGRISFNAMGWYRQAHAKERELVAAISRRGGSTYYADSVKGRFTISRDNAKNTVSLQMNSLKPEDTAVYYCAPDIIRPVTVDYWGQGTQVTVSS” here?
A: The value was “high polyreactivity”.

Q: Which “polyreactivity (PSR sort gate)” value does the source give for “QVHLVESGGGLVQAGGSLRLSCAASGRIYRVNGMGWYRQAPGTERELVAAIRRSGGSTYYADSVKGRFTISRDIAKNTVYLQMNSLKPEDTAVYYCAARVRQSSYTRYDSWGQGTQVTVSS” here?
A: Its value is “high polyreactivity”.

Q: With “QVHLVESGGGLVQAGGSLRLSCAASGRPFYIYAMGWYRPAPGKERELVAAITWSGGTTYYADSVKGRFTISRDTANNTVYLQMNSQKPQDTAVYYCNASFRRGFDYWGQGTQVTVSS” as the sequence, how does the “polyreactivity (PSR sort gate)” value read?
A: Its value is “low polyreactivity”.

Q: With “QVHLVESGGGLVQAGGSLRLSCAASGRTFFRYAMGWYTQAPGKERELVAAITRSGGSTYYADSVKGRFTISRDNAKNTVYLEMNSLKPEDTAVYYCAAPREAYSRGYDSWGQGTQVTVSS” as the sequence, how does the “polyreactivity (PSR sort gate)” value read?
A: Its value is “high polyreactivity”.

Q: Which “polyreactivity (PSR sort gate)” value does the source give for “QVHLVESGGGLVQAGGSLRLSCAASGRTFNRTAMGSYRQAPGKERELVAAMSWRGDSTSYADSVKGRFTISRDNAKNTVYLQMNSLKPADTAVYYCATAHDYAFYRYWYVPSEYYYWGQGTQVTVSW” here?
A: Its value is “low polyreactivity”.

Q: For “QVHLVESGGGLVQAGGSLRLSCAASGRTFPGYAMGWYRQAPGKERELVATITGNAGSTYYADSVKGRFTISRDNAKNTVYLQMNSLKPEDTAVYYCAAGRRRPYVRAYRGTDYWGQGTQVTVSS”, which “polyreactivity (PSR sort gate)” value is on record?
A: Its value is “low polyreactivity”.

Q: Which “polyreactivity (PSR sort gate)” value does the source give for “QVHLVESGGGLVQAGGSLRLSCAASGRTFSWNALGWYRQAPGKQRELVAVISRGDSTNYADSVKGRFTISRDNEKNTVYLQMNSLKPVDNAVYYCAADGYPPGYGYWGQGTQVTVSS” here?
A: The value was “low polyreactivity”.

Q: Which “polyreactivity (PSR sort gate)” value does the source give for “QVHLVESGGGLVQAGGSLRLSCAASGRTFVFNAMGWYRQAPGKEREFVAAITWGGGSTYYADSVKGRFTISRDNAKNTVYLQMNSLKPEDTADYYCARPTTYGYYYWGQGTQVTVSS” here?
A: Its value is “high polyreactivity”.

Q: For “QVHLVESGGGLVQAGGSLRLSCAASGRTIGVNAMGWYRQPHGTERELVAAITKDSGATNYADSVKGLFTISRDNAKITVYFQMNSLKADDTAVYYCAARVWVRGYYWGQGTQVTVSS”, which “polyreactivity (PSR sort gate)” value is on record?
A: Its value is “low polyreactivity”.

Q: With “QVHLVESGGGLVQAGGSLRLSCAASGRTLAPNAMGWYRQAPGKERELVATITRGGTTNYADSVKGRFTISRDNAKNTVYLQMNSLKPEDTAVYYCAAGYPSWYYGYPYDSWGQGTQVTVSS” as the sequence, how does the “polyreactivity (PSR sort gate)” value read?
A: Its value is “low polyreactivity”.

Q: For “QVHLVESGGGLVQAGGSLRLSCAASGRTVEGNAMGWYIQAPGKERELVAAITSGGRTNYADSVKGRFTISRDNAKNTVYLQMNSLKPVDTAVYYCAVETRDRSTDFPGQAYDYWGQGTQLTVSS”, which “polyreactivity (PSR sort gate)” value is on record?
A: The value was “low polyreactivity”.
